# In the DeepSol protein solubility set:
# Assay: soluble on expression in E. coli; label from the status in PepcDB or PDB records
row,Sequence,soluble on expression in E. coli
1,SLRRAAKAEAQAWLLTERLAQAEERHRLLEDQSATQIELIKAQAAQSANAIAEQLIKRADENAKSRERLAEARLEAQLKPVAETLAKFEAQVTAVEKARAEETGGLKAQITALLEASTATQAEARKLSAALRRGAGVQGRWGEQTLRNVLEAAGLNSRFDFQEQFSVDSEEGRRRPDVKVTLPGGGVFVIDAKCSLNAFLEAQDATDEVLREAAMARHAQSVRTHMQGLSSKAYWDQFAGEGSPDFVAMFVPGDGFLAAALDRLPELMAEAMDRRVVLVTPTTLFALCKAVAYGWRAEDQAKNAARIVEVGRELYKRVSVMGAHAGAMGKALESAVGKYNQFVGSLESQVLTQARRFEDLSVDHEGKEIPEPPMVDQAVRPLTKLKAVGQSPTLTLGNDTPT,soluble
2,MGSDKIHHHHHHMKKEQIIQGPCTIKVLEGEARILGIEIQKNDLLTIPSDKTYTLVYDENTRLETDCKKLLDNLNLRWDEIVEEIINTVGVVLLLGNVDSGKTYLTNLFTNLATSYLKIIDADVGQSTLFLPTFIAELKPMRKTLNLEELGYDTLEFFGDITPSTNPRLHVQKILRLYETTPKERLTVIDTDGWTVGLNSMLHKFELIYTIDPDYIIVFDQKIKDSLPENYRNKAILLKSVNLHKSRSERKANRIAKYERYFKEAKNIKTLSENLLGKQISNILYCAWGEYIQLSDEEPCTDYYIPLNLLKGALLGIIENKKVIGAALLDDLKENEITILSRVNKFTGLVLGYISLNDKFEERRIRFRKCKS,not soluble
3,GPGSMAAMASRALISSPSHLLQKFDSCRTIFMCCDIQEKLRNRIPNFQAAVDVSNSMATIHNTLTPKHSTFVVTEQYPKGVGHVAKDITLPEGTPVIEKLQPSMLVPEMMPYIDGDAARGILPVQQAVLWGHETHVCVLQTADELLSRNIRVAVLVDGCASQQQLDHDVAIQEMAGWENLTLTTTISVLLQLSRGDRWIRGALMKVVKPKWADPSRFPSLPADGERPKA,soluble
4,MGSDKIHHHHHHMVAYGELIREVRLSKGLTQKEVYTGVISKSYAIGFEKGKHDITLVLFEEILERVMLSSDEFFFMNRGYSLAEEDNFWYKFANAANQKSLADLQELYQEVLQQTGDRANLRKAIVHSRMEINEQFLLNNRFDVSIVSEKDKAVIQTYLWKVQSWTLEEIRIFANSVDYFEEDVQIYFFQLVLKSLEKYKHYDRGKKVFSTLLSNIIEELITRNQLEYAAQLLEILHELSSTHDCAFYRIMHNYYQGLIWMKNDQVEQGLKESKSAIRILDVLDYKSLAQLYNTLLQQFLEKENIQIV,not soluble
5,MNSLVRRSAQQLSLWRTYCIKHNASEAASPGRNAGRPNYEEFIGRHQRQAQCSIVVQVSSEKSYEELYNYCSSFGSIMGAHHYCVRQDETLHYILLEYATSDEAAAAIGAGVTNGELSGVPVRSPFLWFRAAGGGRRSPKLVANTAPALLSLDGTRQVDQRHLLGLLRGAADIEEQVQQLYEHTRLNELGIRMRFLAALQVQQAIAGMFPAAQAQPFGSSVNGFGRMGCDLDLILRFDSDMGAKIPLEAAVPSRLVYHTKENLSNGRSQTQRHMECFGDMLHLFLPGVCHVRRILQARVPIIKYHHEHLDLEVDLSMSNLTGFYMSELLYMFGEMDPRVRPLTFTIRRWAQTCGLTNPSPGRWISNFSLTCLVMFFLQQLRQPILPTIGALAKAAEPGDSRVTEDGINCTFTRNVDRLGFRSRNQSSLSELLLQFFEFYSQFDFHNRAISLNEGKPLSKPDHSAMYIVNPLEQLLNVSKNVSLEECERLRIEVRNAAWVLESEVENASVPEGDGQELSCGLLNLFKHPEKAVIRPNMFFKPRMVEVSDLFEQKEAGATSSSTPPTPAITYKSASVRQQVQSIKAATRSELKQLRGSGSSVPTSSPNNRRRS,not soluble
6,MSLYKLIALDMDGTLLNSQKQISPRTKQAIAQARQQGIQVVLASGRPLDGMRSKLEELHLTTENDYVLYYNGSMVANVGTGEIIHQQIIDGKAAKRVATLAQEFGLNTHAFSQIHGLITPKTSQYTEVEASINGLNITEMDFAQLADDHPIIKAMIVGEPEKLTQAIAQLPAQWREEFTVVQSAPFFLEFLNTGSNKGIGVQAIAAHLGIQASEVICMGDAENDHHMLQYAGLGIAMANAMEETKHIADHITLSNDHDGVAVAIERFALGCFSEGHHHHHH,soluble
7,MGSDKIHHHHHHMMENFPKPVVVVSKCLGFDSCRYNGDIIDAPFVDKLRSHVTFVPVCPEVEIGLGVPRKPIRIVSDKGITTLYQPATGKDFTGTMRSFVDDFLGSLTEVDGFLLKNRSPSCGVGDVKIHAGFDEGARMFRGSGFLGGAVLERFAGLPVEDEGRIRNFTIREHFLTRLFLFARFREVKKSGSMRGLVDFHSLQKLLLMGYNQAQMRLLGKIVANHEKADWNTMITRYEEQLKRALANPPRFTAMINVLLHAFGGFSNVLAKEEKAFFLDLIEEYRDERIPLSALLQVLRGWSIRFRNDYLLGQTFLQPYPGQLSKITDSGKGREP,not soluble
8,MGSDKIHHHHHHMSSSGYVPDNKNLKKSSGTPNLFFDSRKNIFFKRDEKNVAYEVTSTQLPAMIGGAFVDLFMTKGHMREPHWHPNAWELDVVVSGEAVTSILNPETNQLQNYHMKAGQTVFIPMGWWHWITAVTEEVQLHLFFNNDQFETAEGSDILRLTPPEVFQAAYGVSAEKLGKDLSPIKESVVIGPPNLNRIKGVKESDDSNIVVTLNGQITSCEIE,not soluble
9,SPVTKCPRKVEPPWKGWDRKAQKNGLRHQVFAVNGDHYVGEWKGNLKHGKGTQVWKKSGAVYEGDWKFGKRDGYGSLSHPDPETGKLRRVYSGWWKGDKKSGYGIQFFGPKEYYEGEWCNNQRSGWGRMYYNNGDIYEGQWQNDKPEGEGMLRLKNGNRYEGIWERGMKNGHGRFFHLDHGQLFEGYWVDNVAKCGTMIDFGRDEAPEPTQFPIPKVEILDPDGVLKEALDKLMKPEEEEG,soluble
10,PDVSVQEMVSAYTTFVNKGIRVNPLPITRIEDQYGNVVAQFSPNMVEVLPPDAAYKMLYMLKSVVDGGTGSRLRYRYGFKLDMGGKTGTTQNNSD,not soluble
11,REVLARDREVLRSVYGILVQAHYRNTPDDLLAMLESPHHRIYALEADGTPVAVADVVLEGPDVEEEARIALERLLYMAGSPGSGVVSWRVSRIAVHEDLQRRGLGSRLLRHVEAQARESGASLVTTMFSRHDVIPFWLKNGFKPFYVSPRYNRVTGEKNVALAKPLDSAGA,not soluble
12,MGSDKIHHHHHHVPKNKDSKNNSIPRRRFGRTEIQIPVLSLGGMRFQQSWKDLDPKEINNQQQEILQKTISYAAQKGMHHIETARHYGTSERQIGWAFDQIDDPKRILQTKVPPNNDPSIFEQELELSMSRLGSKKIDLLAIHGINLPEHLDMTIRPNGCLQIVRRWQKDGLIGHVGFSTHANVDLIIKTIETGFFDYVNLHWYFIRQENEKALQAADANDLGVFIISPTDKGGHLHTPSLKLLDLCSPLHPIEFNDLFCLRDKRIHTLSVGASSPEDLDIHLSAISKMDTMHGVINTIEKRLINASYKSLGESWLTTWNIGLPRWDQTPGEINIPTLLWLNNLLEAWDMESFVKDRYGLLGRGGHWFPGANADCLDCEVSEDDLKKVLINSPWSSEIPSVLRKLKDRLGGERRDRLWGI,not soluble
13,AHHHHHHGSPCYNLKNKVAIVTGGGQGIGAAIAQLFAENGAKVVLAEIDEEAGLEREAMLRERGLDVTFIKTDVADEESVKNMVKKTVELYGGVDILVNNAAIMSVKSIFERTLEEWERVIRVNLTGPYICSRYAAEEMIKRGGGVIINIASTRALMSEPDTEPYSASKGGLLALTHSLAISLAKYRIRVVAVSPGWIETSRWKKSKLRSEPKLRPIDHEQHPAGRVGDPMDIAHICAFLADNEKAGFITGVNFVVDGGMTVKMIYAD,not soluble
14,MSSGLYSMEKKEFDKVLDLERVKPYGDTMNDGKVQLSFTLPLKNNERSAEAAKQIALKMGLEEPSVVMQQSLDEEFTFFVVYGNFVQSVNYNEIHVEAVNSEILSMEETDEYIKENIGRKIVVVGASTGTDAHTVGIDAIMNMKGYAGHYGLERYEMIDAYNLGSQVANEDFIKKAVELEADVLLVSQTVTQKNVHIQNMTHLIELLEAEGLRDRFVLLCGGPRINNEIAKELGYDAGFGPGRFADDVATFAVKTLNDRMNS,soluble
15,MNVVQVEYLNVAEIKALLNSTISKLNPRYTSNYMIVTAILTGARLSEIAGLTWNDINFNFNTININKSYDYFAKSFKPTKNKSSNRIIKINNTLCDVLKELRTNNTDLVFKNKRGLIPTSNAVNKALRARLEELNINRRNFHFHSLRHSHVAFLLSQGIDIYPIAQRLGHSDITTTTRTYAYLIEEYKDKNDAIIIAGLDKLEHHHHHH,not soluble
16,MGSDKIHHHHHHMLQAFATQYIVESLGCETEIIDYTADRFNKHYPLDLGLFRFLIDAYQEKKKKAARTKFNDATFQNNIAKRKTSYVEFIHRRLHNIKEVSGFSNLCKLGSEYDAVLIGSDQKWHPGFSFGVDSSFRFVPKSVRTISYATSLGVSEYPKSYWRTSRKAWSRIDYLSVREKTGADIISKVCDNNIHAEVVVDPTYLISCEDWKKIFPVEKKFEDKYIFCYFLGNDEESKKCARRYANLKGLKLVSVVSNESYSEIDQEYADFLMTGESPDSFVNWIRGAECVFTDSFHGTAFSIMNEKQIYVFYRKNTGVKLQRHSRIDDILSLWEIKYRLITDKHREWDSYQEQPIDYTLVTQKVQSERERSMKFLKAALTF,not soluble
17,MASMTGGQQMGRGSSTSLYKKAGLMPSPMEDIEEILITEEQLKAKVKELGEMITRDYEGKDLVLIGVLKGAIMFMSGLSRAIDLPLSIDFLAVSSYGSSTKSSGIVKIIKDHDIDIEGKDVLIVEDIIDSGLTLAYLRETLLGRKPRSLKICTILDKPERREADVKVDYCGFKIPDKFVVGYGLDYAEKYRNLPFIGVLKPELYK,soluble
18,MKTLIARHKAGEHIGICSVCSAHPLVIEAALAFDRNSTRKVLIEATSNQVNQFGGYTGMTPADFREFVFAIADKVGFARERIILGGDHLGPNCWQQENVDAAMEKSVELVKAYVRAGFSKIHLDASMSCAGDPIPLAPETVAERAAVLCFAAESVATDCQREQLSYVIGTEVPVPGGEASAIQSVHITHVEDAANTLRTHQKAFIARGLTEALTRVIAIVVQPGVEFDHSNIIHYQPQEAQALAQWIENTRMVYEAHSTDYQTRTAYWELVRDHFAILKVGPALTFALREAIFALAQIEQELIAPENRSGCLAVIEEVMLDEPQYWKKYYRTGFNDSLLDIRYSLSDRIRYYWPHSRIKNSVETMMVNLQGVDIPLGMISQYLPKQFERIQSGELSAIPHQLIMDKIYDVLRAYRYGCAE,soluble
19,MFYAQFVLAKKGPLAKVWLAAHWEKKLTKAQIFETDVPQAIEEVIRPKVKMALRTVGHLLLGIVRIYSKKTRYLLADTNEAYQKMKINFRNGFSFEVDIPENAEIEEDFSNFIDKYNITVPEFHDADYNEQLIMANVSRREDITMKETVNFNVEFNIDADFDGFGDEGESWQLDHLYGSVEPLSLRPTPQPESLMEVERDRDVAANGTEISRIDADSVIFSEGPTRPNLIFDNQEGGNFMPEMNLKVENQTLENDGGVGPADMFSSMIHPVREHAVADVQNDDGMDFDYQPFEPENVEPSRPQSPESFALEPLDVEHMEGRKKRQRKARKLIVDAETMISNDAFREQQEDFSDTMRVVEMAPPTRKMFNLCVSGDLQHLSREPGCKMFNRELLQRYRRCLVTREFDLNYTMQELSDSSSFTPSMEAQAEPWEDLNLNEDIQEDIQAQGPAVDEFFNDVRMDDDDDRQPAQEMDFGDNFDFPQEVEHQECAPIPIQSGFAGENKENEDAEDWSDPFGSSNSSRRGQLEAYGFGNTSTYKEDDGKWAKRAKHILKKVSADIETSGQADFSSVTATAKNRKQAAEQFYSLLTLAKSQAISVDQSEPYGEIVIRPGANFKEACPLSSPKPMGLGNTMENSTMRTPMRPV,not soluble
